Assay results taken from patent publication US9738911B2, “Methods of producing 7-carbon chemicals via pyruvate and succinate semialdehyde aldol condensation” (INVISTA North America S.a r.l., priority 2012, dated 2017).

Tests used:
Assay type in all cases: biochemical
[1] = ω-transaminase activity assay, reverse direction, 7-aminoheptanoate to pimelate semialdehyde; details: 10 mM 7-aminoheptanoate, 10 mM pyruvate, cell free extract, 25° C., 4 h; against empty vector control (FIG. 15)
Procedure: (§1) A sequence encoding an N-terminal His-tag was added to the genes from Chromobacterium violaceum, Pseudomonas syringae, Rhodobacter sphaeroides, and Vibrio Fluvialis encoding the ω-transaminases of SEQ ID NOs: 8, 10, 11 and 13, respectively (see FIGS. 7F-7G) such that N-terminal HIS tagged ω-transaminases could be produced. Each of the resulting modified genes was cloned into a pET21a expression vector under control of the T7 promoter and each expression vector was transformed into a BL21[DE3] E. coli host. The resulting recombinant E. coli strains were cultivated at 37° C. in a 250 mL shake flask culture containing 50 mL LB media and antibiotic selection pressure, with shaking at 230 rpm. Each culture was induced overnight at 16° C. using 1 mM IPTG.
(§2) The pellet from each induced shake flask culture was harvested via centrifugation. Each pellet was resuspended and lysed via sonication. The cell debris was separated from the supernatant via centrifugation and the cell free extract was used immediately in enzyme activity assays.
Enzyme activity assays in the reverse direction (i.e., 7-aminoheptanoate to pimelate semialdehyde) were performed in a buffer composed of a final concentration of 50 mM HEPES buffer (pH=7.5), 10 mM 7-aminoheptanoate, 10 mM pyruvate and 100 μM pyridoxyl 5′ phosphate. Each enzyme activity assay reaction was initiated by adding cell free extract of the ω-transaminase gene product or the empty vector control to the assay buffer containing the 7-aminoheptanoate and incubated at 25° C. for 4 h, with shaking at 250 rpm. The formation of L-alanine from pyruvate was quantified via RP-HPLC.

[2] = ω-transaminase activity assay, 7-aminoheptanol to 7-oxoheptanol; details: for substrate acceptance, formation of L-alanine by RP-HPLC: 10 mM 7-aminoheptanol, 10 mM pyruvate, cell free extract, 25° C., 4 h, against empty vector control (FIG. 19); for acceptance of 7-oxoheptanol, forming 7-aminoheptanol, concluded from reversibility: concluded from the reverse direction assay and Example 2
Procedure: A nucleotide sequence encoding an N-terminal His-tag was added to the Chromobacterium violaceum, Pseudomonas syringae and Rhodobacter sphaeroides genes encoding the ω-transaminases of SEQ ID NOs: 8, 10 and 11, respectively (see FIGS. 7F and 7G) such that N-terminal HIS tagged ω-transaminases could be produced. The modified genes were cloned into a pET21a expression vector under the T7 promoter.
Each expression vector was transformed into a BL21[DE3] E. coli host. Each resulting recombinant E. coli strain were cultivated at 37° C. in a 250 mL shake flask culture containing 50 mL LB media and antibiotic selection pressure, with shaking at 230 rpm. Each culture was induced overnight at 16° C. using 1 mM IPTG.
as §2
Enzyme activity assays in the reverse direction (i.e., 7-aminoheptanol to 7-oxoheptanol) were performed in a buffer composed of a final concentration of 50 mM HEPES buffer (pH=7.5), 10 mM 7-aminoheptanol, 10 mM pyruvate, and 100 μM pyridoxyl 5′ phosphate. Each enzyme activity assay reaction was initiated by adding cell free extract of the ω-transaminase gene product or the empty vector control to the assay buffer containing the 7-aminoheptanol and then incubated at 25° C. for 4 h, with shaking at 250 rpm. The formation of L-alanine was quantified via RP-HPLC.

[3] = ω-transaminase activity assay, forward direction, pimelate semialdehyde to 7-aminoheptanoate; details: for substrate acceptance, formation of pyruvate from L-alanine by RP-HPLC: 10 mM pimelate semialdehyde, 10 mM L-alanine, cell free extract, 25° C., 4 h, against empty vector control (FIG. 16); for reversibility of ω-transaminase activity: pimelate semialdehyde accepted, 7-aminoheptanoate synthesized: conclusion from the forward and reverse assays of Example 2
Procedure: as §1, §2
Enzyme activity in the forward direction (i.e., pimelate semialdehyde to 7-aminoheptanoate) was confirmed for the transaminases of SEQ ID NO 10, SEQ ID NO 11 and SEQ ID NO 13. Enzyme activity assays were performed in a buffer composed of a final concentration of 50 mM HEPES buffer (pH=7.5), 10 mM pimelate semialdehyde, 10 mM L-alanine and 100 μM pyridoxyl 5′ phosphate. Each enzyme activity assay reaction was initiated by adding a cell free extract of the ω-transaminase gene product or the empty vector control to the assay buffer containing the pimelate semialdehyde and incubated at 25° C. for 4 h, with shaking at 250 rpm. The formation of pyruvate was quantified via RP-HPLC.

[4] = Carboxylate reductase activity assay, N7-acetyl-7-aminoheptanoate to N7-acetyl-7-aminoheptanal; details: 2 mM N7-acetyl-7-aminoheptanoate, 1 mM ATP, 1 mM NADPH, enhanced by sfp gene product, room temperature, 20 min; against empty vector control (FIG. 12)
Procedure: The activity of each of the N-terminal His-tagged carboxylate reductases of SEQ ID NOs: 3, 6, and 7 (see Examples 4, and FIGS. 7B, 7E, and 7F) for converting N7-acetyl-7-aminoheptanoate to N7-acetyl-7-aminoheptanal was assayed in triplicate in a buffer composed of a final concentration of 50 mM HEPES buffer (pH=7.5), 2 mM N7-acetyl-7-aminoheptanoate, 10 mM MgCl2, 1 mM ATP, and 1 mM NADPH. The assays were initiated by adding purified carboxylate reductase and phosphopantetheine transferase or the empty vector control to the assay buffer containing the N7-acetyl-7-aminoheptanoate then incubated at room temperature for 20 min. The consumption of NADPH was monitored by absorbance at 340 nm.

Row | substrate acceptance, formation of L-alanine from pyruvate by RP-HPLC [1] | substrate acceptance, formation of L-alanine by RP-HPLC [2] | Molecule | acceptance of 7-oxoheptanol, forming 7-aminoheptanol, concluded from reversibility [2] | substrate acceptance, formation of pyruvate from L-alanine by RP-HPLC [3] | reversibility of ω-transaminase activity: pimelate semialdehyde accepted, 7-aminoheptanoate synthesized [3] | substrate acceptance, consumption of NADPH by absorbance at 340 nm [4]
1 | accepted 7-aminoheptanote as substrate | accepted 7-aminoheptanol as substrate | SEQ ID NO 11: Rhodobacter sphaeroides ω-transaminase (Genbank Accession No. ABA81135.1) | accept 7-oxoheptanol as substrate and form 7-aminoheptanol | accepted pimelate semialdehyde as substrate | accepted pimelate semialdehyde as substrate and synthesized 7-aminoheptanoate as a reaction product | 
2 | accepted 7-aminoheptanote as substrate |  | SEQ ID NO 13: Vibrio fluvialis ω-transaminase (Genbank Accession No. AEA39183.1) (protein, listed as Vibrio fluvialis) MNKPQSWEARAETYSLYGFTDMPSLHQRGTVVVTHGEGPYIVDVNGRRYLDANSGLWNMVAGFDHKGLIDAAKAQYERFPGYHAFFGRMSDQTVMLSEKLVEVSPFDSGRVFYTNSGSEANDTMVKMLWFLHAAEGKPQKRKILTRWNAYHGVTAVSASMTGKPYNSVFGLPLPGFVHLTCPHYWRYGEEGETEEQFVARLARELEETIQREGADTIAGFFAEPVMGAGGVIPPAKGYFQAILPILRKYDIPVISDEVICGFGRTGNTWGCVTYDFTPDAIISSKNLTAGFFPMGAVILGPELSKRLETAIEAIEEFPHGFTASGHPVGCAIALKAIDVVMNEGLAENVRRLAPRFEERLKHIAERPNIGEYRGIGFMWALEAVKDKASKTPFDGNLSVSERIANTCTDLGLICRPLGQSVVLCPPFILTEAQMDEMFDKLEKALDKVFAEVA |  | accepted pimelate semialdehyde as substrate | accepted pimelate semialdehyde as substrate and synthesized 7-aminoheptanoate as a reaction product | 
3 |  |  | SEQ ID NO 3: Mycobacterium smegmatis carboxylate reductase (Genbank Accession No. ABK71854.1) (protein, listed as Mycobacterium smegmatis) MTSDVHDATDGVTETALDDEQSTRRIAELYATDPEFAAAAPLPAVVDAAHKPGLRLAEILQTLFTGYGDRPALGYRARELATDEGGRTVTRLLPRFDTLTYAQVWSRVQAVAAALRHNFAQPIYPGDAVATIGFASPDYLTLDLVCAYLGLVSVPLQHNAPVSRLAPILAEVEPRILTVSAEYLDLAVESVRDVNSVSQLVVFDHHPEVDDHRDALARAREQLAGKGIAVTTLDAIADEGAGLPAEPIYTADHDQRLAMILYTSGSTGAPKGAMYTEAMVARLWTMSFITGDPTPVINVNFMPLNHLGGRIPISTAVQNGGTSYFVPESDMSTLFEDLALVRPTELGLVPRVADMLYQHHLATVDRLVTQGADELTAEKQAGAELREQVLGGRVITGFVSTAPLAAEMRAFLDITLGAHIVDGYGLTETGAVTRDGVIVRPPVIDYKLIDVPELGYFSTDKPYPRGELLVRSQTLTPGYYKRPEVTASVFDRDGYYHTGDVMAETAPDHLVYVDRRNNVLKLAQGEFVAVANLEAVFSGAALVRQIFVYGNSERSFLLAVVVPTPEALEQYDPAALKAALADSLQRTARDAELQSYEVPADFIVETEPFSAANGLLSGVGKLLRPNLKDRYGQRLEQMYADIAATQANQLRELRRAAATQPVIDTLTQAAATILGTGSEVASDAHFTDLGGDSLSALTLSNLLSDFFGFEVPVGTIVNPATNLAQLAQHIEAQRTAGDRRPSFTTVHGADATEIRASELTLDKFIDAETLRAAPGLPKVTTEPRTVLLSGANGWLGRFLTLQWLERLAPVGGTLITIVRGRDDAAARARLTQAYDTDPELSRRFAELADRHLRVVAGDIGDPNLGLTPEIWHRLAAEVDLVVHPAALVNHVLPYRQLFGPNVVGTAEVIKLALTERIKPVTYLSTVSVAMGIPDFEEDGDIRTVSPVRPLDGGYANGYGNSKWAGEVLLREAHDLCGLPVATFRSDMILAHPRYRGQVNVPDMFTRLLLSLLITGVAPRSFYIGDGERPRAHYPGLTVDFVAEAVTTLGAQQREGYVSYDVMNPHDDGISLDVFVDWLIRAGHPIDRVDDYDDWVRRFETALTALPEKRRAQTVLPLLHAFRAPQAPLRGAPEPTEVFHAAVRTAKVGPGDIPHLDEALIDKYIRDLREFGLI |  |  |  | accepted N7-acetyl-7-aminoheptanoate as substrate
4 | accepted 7-aminoheptanote as substrate | accepted 7-aminoheptanol as substrate | SEQ ID NO 8: Chromobacterium violaceum ω-transaminase (Genbank Accession No. AAQ59697.1) (protein, listed as Chromobacterium violaceum) MQKQRTTSQWRELDAAHHLHPFTDTASLNQAGARVMTRGEGVYLWDSEGNKIIDGMAGLWCVNVGYGRKDFAEAARRQMEELPFYNTFFKTTHPAVVELSSLLAEVTPAGFDRVFYTNSGSESVDTMIRMVRRYWDVQGKPEKKTLIGRWNGYHGSTIGGASLGGMKYMHEQGDLPIPGMAHIEQPWWYKHGKDMTPDEFGVVAARWLEEKILEIGADKVAAFVGEPIQGAGGVIVPPATYWPEIERICRKYDVLLVADEVICGFGRTGEWFGHQHFGFQPDLFTAAKGLSSGYLPIGAVFVGKRVAEGLIAGGDFNHGFTYSGHPVCAAVAHANVAALRDEGIVQRVKDDIGPYMQKRWRETFSRFEHVDDVRGVGMVQAFTLVKNKAKRELFPDFGEIGTLCRDIFFRNNLIMRACGDHIVSAPPLVMTRAEVDEMLAVAERCLEEFEQTLKARGLA | accept 7-oxoheptanol as substrate and form 7-aminoheptanol |  | accepted pimelate semialdehyde as substrate and synthesized 7-aminoheptanoate as a reaction product | 
5 | accepted 7-aminoheptanote as substrate | accepted 7-aminoheptanol as substrate | SEQ ID NO 10: Pseudomonas syringae ω-transaminase (Genbank Accession No. AAY39893.1) (protein, listed as Pseudomonas syringae) MSANNPQTLEWQALSSEHHLAPFSDYKQLKEKGPRIITRAEGVYLWDSEGNKILDGMSGLWCVAIGYGREELADAASKQMRELPYYNLFFQTAHPPVLELAKAISDIAPEGMNHVFFTGSGSEGNDTMLRMVRHYWALKGQPNKKTIISRVNGYHGSTVAGASLGGMTYMHEQGDLPIPGVVHIPQPYWFGEGGDMTPDEFGIWAAEQLEKKILELGVENVGAFIAEPIQGAGGVIVPPDSYWPKIKEILSRYDILFAADEVICGFGRTSEWFGSDFYGLRPDMMTIAKGLTSGYVPMGGLIVRDEIVAVLNEGGDFNHGFTYSGHPVAAAVALENIRILREEKIVERVRSETAPYLQKRLRELSDHPLVGEVRGVGLLGAIELVKDKTTRERYTDKGAGMICRTFCFDNGLIMRAVGDTMIIAPPLVISFAQIDELVEKARTCLDLTLAVLQG | accept 7-oxoheptanol as substrate and form 7-aminoheptanol | accepted pimelate semialdehyde as substrate | accepted pimelate semialdehyde as substrate and synthesized 7-aminoheptanoate as a reaction product | 
